This data set addresses ITSN1 SH3D-His (UniProt Q15811-2 1063-1150). Kind of data set: NMR; 300 uM SH3D, 1:1.2 molar ratio; shift perturbations in eight residues; EMSA: 20 mM Tris-HCl pH 7.4, 50 mM KCl, 1 mM Mg, room temperature, 5 min, 0.7% agarose 0.5x TBE; NMR: 298 K, protein dialyzed in 12 mM potassium. To be noted: protein: recombinant; tags: His (pET22b); single strand. (In general: Mobility shift assays separate free from complexed probe on a gel.)

ITSN1 SH3D-His, sequence (Q15811 1063-1150): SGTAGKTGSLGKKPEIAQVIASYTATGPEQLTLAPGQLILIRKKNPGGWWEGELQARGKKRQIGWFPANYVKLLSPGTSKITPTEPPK

TTTTTTTTTTTT (ssDNA) [T12]: the binding result is “binds”.
As for CACACACACACA (ssDNA) [CA6], the entry is “binds”.
